Biological target: Bacillus anthracis protective antigen (PA) (Bacillus anthracis) (UniProt P13423)
Sequence (P13423 30-764 limits assumed): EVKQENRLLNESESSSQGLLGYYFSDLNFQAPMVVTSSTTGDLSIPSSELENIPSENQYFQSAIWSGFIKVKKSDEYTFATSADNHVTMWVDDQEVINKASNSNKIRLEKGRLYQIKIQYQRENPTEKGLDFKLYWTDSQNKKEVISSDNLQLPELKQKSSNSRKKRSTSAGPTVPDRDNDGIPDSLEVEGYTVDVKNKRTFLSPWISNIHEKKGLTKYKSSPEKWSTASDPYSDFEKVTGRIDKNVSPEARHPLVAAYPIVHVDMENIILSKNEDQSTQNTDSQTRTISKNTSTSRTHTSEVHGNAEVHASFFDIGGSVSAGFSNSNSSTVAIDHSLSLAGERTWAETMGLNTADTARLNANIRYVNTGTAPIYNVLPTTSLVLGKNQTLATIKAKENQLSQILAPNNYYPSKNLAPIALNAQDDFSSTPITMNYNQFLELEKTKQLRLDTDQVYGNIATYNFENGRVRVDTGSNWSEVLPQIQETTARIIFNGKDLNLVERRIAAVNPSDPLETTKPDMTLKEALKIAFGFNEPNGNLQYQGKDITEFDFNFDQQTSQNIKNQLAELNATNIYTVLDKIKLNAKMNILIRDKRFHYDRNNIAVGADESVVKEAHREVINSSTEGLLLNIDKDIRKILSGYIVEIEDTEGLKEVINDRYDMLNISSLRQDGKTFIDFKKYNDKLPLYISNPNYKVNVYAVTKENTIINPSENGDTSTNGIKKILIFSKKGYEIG

26-10 scFv-g3p fusion (pAK200), sequence (P69168 268-424): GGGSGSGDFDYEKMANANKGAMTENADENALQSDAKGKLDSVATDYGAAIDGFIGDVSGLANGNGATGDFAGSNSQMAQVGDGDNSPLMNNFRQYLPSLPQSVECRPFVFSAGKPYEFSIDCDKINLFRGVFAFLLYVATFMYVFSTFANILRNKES

26-10 scFv-g3p fusion (pAK200) (from UniProt P69168 268-424)
M (mean fluorescence): 7.25

From patent publication US20060029947A1
